Laboratory results reported in patent US20090298769A1.

Key:
[1] = target: αvβ3 integrin, wild type, on mouse lung endothelial cells (mouse) (UniProt P43406); test: flow cytometry, WOW-1 Fab on WT mouse lung EC
[2] = target: αvβ3 integrin on human endothelial cells (HUVEC; vessels of human prostate tissue) (human) (UniProt P06756); test: flow cytometry, WOW-1 Fab on HUVEC transfected with dominant negative c-Src
[3] = target: αvβ3 integrin on human endothelial cells (HUVEC; vessels of human prostate tissue) (human) (UniProt P06756); test: flow cytometry, WOW-1 Fab on HUVEC
[4] = target: αvβ3 integrin on human endothelial cells (HUVEC; vessels of human prostate tissue) (human) (UniProt P06756); test: flow cytometry (FACS), WOW-1 Fab on HUVEC
[5] = target: DiYF β3 integrin (αvβ3 with β3 Tyr747Phe and Tyr759Phe) on lung endothelial cells of knock-in mice (mouse) (UniProt P43406); test: flow cytometry, WOW-1 Fab on DiYF mouse lung EC
[6] = target: αvβ3 integrin on human endothelial cells (HUVEC; vessels of human prostate tissue) (human) (UniProt P06756); test: immunohistochemistry of human prostate tissue
[7] = target: DiYF β3 integrin (αvβ3 with β3 Tyr747Phe and Tyr759Phe) on lung endothelial cells of knock-in mice (mouse) (UniProt P43406); test: cell-based or functional assay
[8] = target: VEGFR-2 of mouse lung endothelial cells (mouse) (UniProt P35918); test: cell-based or functional assay
[9] = target: DiYF β3 integrin (αvβ3 with β3 Tyr747Phe and Tyr759Phe) on lung endothelial cells of knock-in mice (mouse) (UniProt P43406); test: flow cytometry, FITC-fibrinogen on DiYF mouse lung EC
[10] = target: αvβ3 integrin, wild type, on mouse lung endothelial cells (mouse) (UniProt P43406); test: flow cytometry, FITC-fibrinogen on WT mouse lung EC

Sequence of αvβ3 integrin, wild type, on mouse lung endothelial cells (mouse) (P43406 31-1044, chain 1 of 2): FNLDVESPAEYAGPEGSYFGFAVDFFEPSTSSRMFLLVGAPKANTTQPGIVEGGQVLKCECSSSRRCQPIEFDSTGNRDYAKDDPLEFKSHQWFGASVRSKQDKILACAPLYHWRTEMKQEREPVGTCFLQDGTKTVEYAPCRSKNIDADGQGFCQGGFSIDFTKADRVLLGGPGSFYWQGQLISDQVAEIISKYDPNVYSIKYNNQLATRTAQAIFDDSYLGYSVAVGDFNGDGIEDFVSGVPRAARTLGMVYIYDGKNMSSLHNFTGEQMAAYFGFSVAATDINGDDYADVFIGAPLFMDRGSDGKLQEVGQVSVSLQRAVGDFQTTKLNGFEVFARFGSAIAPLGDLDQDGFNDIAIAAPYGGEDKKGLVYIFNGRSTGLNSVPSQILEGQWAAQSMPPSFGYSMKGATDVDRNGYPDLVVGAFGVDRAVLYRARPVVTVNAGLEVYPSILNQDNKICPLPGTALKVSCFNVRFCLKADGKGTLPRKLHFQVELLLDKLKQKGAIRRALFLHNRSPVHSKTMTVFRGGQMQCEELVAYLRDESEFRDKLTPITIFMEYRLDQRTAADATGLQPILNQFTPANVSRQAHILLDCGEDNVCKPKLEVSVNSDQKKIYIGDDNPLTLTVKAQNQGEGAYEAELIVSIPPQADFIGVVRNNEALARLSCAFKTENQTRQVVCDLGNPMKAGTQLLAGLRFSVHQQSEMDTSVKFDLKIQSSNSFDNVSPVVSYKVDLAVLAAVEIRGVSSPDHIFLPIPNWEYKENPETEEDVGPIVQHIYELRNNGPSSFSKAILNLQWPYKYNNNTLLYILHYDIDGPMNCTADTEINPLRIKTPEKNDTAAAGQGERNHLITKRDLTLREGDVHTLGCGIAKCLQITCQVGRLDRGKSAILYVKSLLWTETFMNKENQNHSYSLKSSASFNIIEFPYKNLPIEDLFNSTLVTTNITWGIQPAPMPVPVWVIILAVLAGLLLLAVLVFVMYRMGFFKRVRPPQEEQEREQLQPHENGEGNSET
Sequence of αvβ3 integrin, wild type, on mouse lung endothelial cells (mouse) (O54890 26-787, chain 2 of 2, further chain): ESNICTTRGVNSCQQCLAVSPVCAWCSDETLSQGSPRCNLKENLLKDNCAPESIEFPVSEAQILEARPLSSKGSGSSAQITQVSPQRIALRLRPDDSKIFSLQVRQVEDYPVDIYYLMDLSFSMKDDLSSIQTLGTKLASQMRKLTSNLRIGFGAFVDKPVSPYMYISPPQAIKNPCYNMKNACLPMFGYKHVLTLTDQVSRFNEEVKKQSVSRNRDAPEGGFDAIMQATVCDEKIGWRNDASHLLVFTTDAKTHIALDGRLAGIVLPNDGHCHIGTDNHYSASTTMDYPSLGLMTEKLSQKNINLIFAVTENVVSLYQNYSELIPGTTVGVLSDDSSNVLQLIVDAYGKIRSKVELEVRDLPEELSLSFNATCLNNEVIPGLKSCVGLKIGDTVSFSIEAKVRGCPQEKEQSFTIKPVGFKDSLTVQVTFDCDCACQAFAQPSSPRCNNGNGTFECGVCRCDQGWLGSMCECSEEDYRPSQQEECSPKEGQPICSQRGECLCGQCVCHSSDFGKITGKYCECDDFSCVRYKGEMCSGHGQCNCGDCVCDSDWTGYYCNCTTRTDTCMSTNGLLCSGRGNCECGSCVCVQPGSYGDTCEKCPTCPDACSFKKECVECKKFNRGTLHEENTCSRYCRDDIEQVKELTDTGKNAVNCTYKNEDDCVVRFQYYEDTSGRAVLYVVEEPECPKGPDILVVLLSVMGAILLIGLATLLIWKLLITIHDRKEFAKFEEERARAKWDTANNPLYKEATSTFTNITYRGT
Sequence of DiYF β3 integrin (αvβ3 with β3 Tyr747Phe and Tyr759Phe) on lung endothelial cells of knock-in mice (mouse) (P43406 31-1044, chain 1 of 2): as the sequence (P43406 31-1044, chain 1 of 2) above
Sequence of DiYF β3 integrin (αvβ3 with β3 Tyr747Phe and Tyr759Phe) on lung endothelial cells of knock-in mice (mouse) (O54890 26-787 Y772F/Y784F, chain 2 of 2, further chain): as the sequence (O54890 26-787, chain 2 of 2, further chain) above, with Y747F, Y759F counted along it
Sequence of VEGFR-2 of mouse lung endothelial cells (mouse) (P35918 20-1345): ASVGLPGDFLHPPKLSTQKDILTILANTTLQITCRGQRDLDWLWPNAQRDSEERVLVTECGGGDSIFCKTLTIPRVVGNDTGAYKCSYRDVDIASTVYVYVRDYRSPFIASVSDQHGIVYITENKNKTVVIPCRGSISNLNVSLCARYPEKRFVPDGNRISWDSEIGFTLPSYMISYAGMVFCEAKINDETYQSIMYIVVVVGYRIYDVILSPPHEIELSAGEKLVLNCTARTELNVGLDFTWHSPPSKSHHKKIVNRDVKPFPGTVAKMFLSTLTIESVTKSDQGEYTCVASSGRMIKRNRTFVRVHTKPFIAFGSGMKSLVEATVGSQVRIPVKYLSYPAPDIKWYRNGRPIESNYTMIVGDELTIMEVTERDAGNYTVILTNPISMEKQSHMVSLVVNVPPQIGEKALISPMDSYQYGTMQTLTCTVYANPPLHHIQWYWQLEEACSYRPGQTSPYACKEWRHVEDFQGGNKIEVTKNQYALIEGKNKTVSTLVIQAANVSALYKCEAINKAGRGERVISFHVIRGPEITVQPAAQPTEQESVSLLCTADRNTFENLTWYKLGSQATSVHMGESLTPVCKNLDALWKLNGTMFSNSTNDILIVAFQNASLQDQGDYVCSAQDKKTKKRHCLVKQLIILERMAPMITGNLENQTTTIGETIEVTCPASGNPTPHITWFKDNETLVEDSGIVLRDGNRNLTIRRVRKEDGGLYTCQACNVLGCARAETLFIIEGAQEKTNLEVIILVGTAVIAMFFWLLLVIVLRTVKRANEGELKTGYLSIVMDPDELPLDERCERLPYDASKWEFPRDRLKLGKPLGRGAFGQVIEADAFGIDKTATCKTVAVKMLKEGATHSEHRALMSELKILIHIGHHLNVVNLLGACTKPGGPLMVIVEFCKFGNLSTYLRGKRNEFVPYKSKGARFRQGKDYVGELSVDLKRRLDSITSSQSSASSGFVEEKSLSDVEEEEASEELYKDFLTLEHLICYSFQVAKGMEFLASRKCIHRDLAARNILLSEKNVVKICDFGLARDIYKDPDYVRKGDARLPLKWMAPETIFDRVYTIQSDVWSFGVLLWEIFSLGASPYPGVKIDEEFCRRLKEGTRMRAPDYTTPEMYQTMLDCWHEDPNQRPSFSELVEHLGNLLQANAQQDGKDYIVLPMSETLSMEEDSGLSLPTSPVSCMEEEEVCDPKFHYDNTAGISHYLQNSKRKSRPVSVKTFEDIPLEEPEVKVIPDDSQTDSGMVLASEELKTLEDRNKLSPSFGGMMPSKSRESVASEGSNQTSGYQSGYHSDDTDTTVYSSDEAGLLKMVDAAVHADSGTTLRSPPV

## WOW-1 Fab
[1]
  fold increase of binding on MnCl2 stimulation: 30 fold
  fold increase of binding on VEGF stimulation: 9 fold
[2]
  fold reduction of VEGF-triggered αvβ3 activation (WOW-1 binding) by dominant negative c-Src: > 2 fold
[3]
  fold increase of binding on VEGF stimulation: 6 fold
[4]
  fold increase of binding on VEGF-A165 stimulation: 6 fold
[5]
  fold increase of binding on MnCl2 stimulation: 14 fold
  fold increase of binding on VEGF stimulation: 3.5 fold
[6]
  fold increase of WOW-1 density, prostate carcinoma against normal prostate tissue: 2.7 fold

## vitronectin (ligand)
[7]
  fold decrease in cell adhesion to vitronectin, DiYF EC against WT EC: 2 fold

## VEGF-A165 (ligand)
[8]
  VEGFR-2 phosphorylation in DiYF EC: 2.5 fold
  VEGFR-2 phosphorylation in WT EC: 6 fold

## FITC-labeled fibrinogen (ligand)
[9]
  fold increase of binding on MnCl2 stimulation: 17 fold
  fold increase of binding on VEGF stimulation: 3 fold
[10]
  fold increase of binding on MnCl2 stimulation: > 40 fold
  fold increase of binding on VEGF stimulation: > 6 fold
